According to patent US20240294624A1, “ANTI-ERYTHROPOIETIN ANTIBODY” (ANDREMACON S.R.L., priority 2021, published 2024):

Experiments:
GBM-CSC cell line = experiment: MTT cell viability assay; type: cell-based, human; conditions: 96 hours, anti-EPO (C4) 6 μg/ml, TMZ 100 μM, FTY720 100 nM
Procedure: C. Glioblastoma cancer stem cell commercial line (Glioblastoma stem cell line, GBM-CSCs). Anti-EPO treatments were performed on GBM-CSCs, a commercial glioblastoma cancer cell line by CelProgen. As reported in the datasheet, GBM-CSCs have been isolated from human brain cancer tissue. GBM-CSCs were maintained in Celprogen's human glioblastoma cancer stem cell (GBM) complete growth medium and subcultured every 24 to 48 hours on a specific extra-cellular matrix.

N9 microglia cells [1] = experiment: Microglia proliferation and morphology after LPS; type: cell-based, murine; conditions: after LPS stimulation
Procedure: N9 microglial cells were seeded in multiwell plates at a concentration of 1.5×10^4 for 24 hours. The following day the cells were administered the following treatments for 24 hours: • LPS; • Anti-EPO (c4) antibody administered alone; • Anti-EPO (c4) antibody in combination with LPS • Anti-EPO (c4) antibody in combination with LPS and FTY720
N9 cells were detached with enzyme, and an aliquot of known volume was labeled with trypan blue and observed under the microscope for counting. Considering that the number of cells in the culture control, without any treatment, as being 100, the percentage of proliferation of N9 cultured in presence of LPS, anti-EPO (C4) antibody, combination of LPS and anti-EPO antibody was calculated (FIG. 15B).
N9 cells were cultured in Iscove's Modified Dulbecco's MEM, IMDM containing streptomycin/1× penicillin and 2 mM L-glutamine, supplemented with FBS (fetal bovine serum) at 5%. The cells were plated at a concentration of 1.5×10^4 cells/cm2 and kept in a thermostatic incubator at 37° C., with 5% C02, for 24 hours, as above. The next day, the cells were exposed to different treatments for 48 hours. At the end of the treatments, cell viability and proliferation were assessed by staining with trypan blue and observed under the microscope for counting.
The microglia were maintained in a basal culture medium and then activated with lipopolysaccharide (LPS). […]

MCF-7 = experiment: MTT cell viability assay; type: cell-based, human; conditions: 96 hours, 6 μg/ml
Source text: G. Breast cancer cell line (MCF-7); breast cancer cells.

N9 microglia cells [2] = experiment: Microglia viability, trypan blue; type: cell-based, murine; conditions: 48 hours of culture
Procedure: N9 cells were cultured in Iscove's Modified Dulbecco's MEM, IMDM containing streptomycin/1× penicillin and 2 mM L-glutamine, supplemented with FBS (fetal bovine serum) at 5%. The cells were plated at a concentration of 1.5×10^4 cells/cm2 and kept in a thermostatic incubator at 37° C., with 5% CO2, for 24 hours. The next day, the cells were exposed to different treatments for 48 hours. At the end of the treatments, cell viability was assessed by staining with trypan blue. The microglia was maintained in a basal culture medium and then activated with lipopolysaccharide (LPS), a molecule present on the membrane of the Gram-negative bacteria. Furthermore, to study the role of the product “anti-EPO (C4)” in the inhibition of neuroinflammation and then in the inhibition of the activation of microglia, the antibody according to the scheme below was administered, in association and not with LPS, to activate microglia. […]
N9 cells were cultured in Iscove's Modified Dulbecco's MEM, IMDM containing streptomycin/1× penicillin and 2 mM L-glutamine, supplemented with FBS (fetal bovine serum) at 5%. […] At the end of the treatments, cell viability and proliferation were assessed by staining with trypan blue and observed under the microscope for counting. […]

[3] = Plasma pharmacokinetics by SPR after single i.v. injection; type: in vivo; conditions: mice with glioblastoma xenograft, single i.v. 10 mg/kg
Procedure: The ligands hEPO and BSA (Sigma-Aldrich, Italy, used as reference) were immobilized using amine-coupling chemistry on parallel channels of a CMD700L (Xantec GmbH) sensor chip. Briefly, surface was activated with sulfo NHS/EDC according to manufacturer's recommendation; hEPO and BSA were diluted at a concentration of 400 and 30 μg/mL in acetate buffer, pH 4.0 and 4.5, respectively. These solutions were flowed for 5 min at a rate of 30 μL/min over the activated chip surface. The remaining activated groups were blocked with ethanolamine, pH 8.0.
The analyte solutions (e.g. control plasma containing spiked anti-EPO (C4) antibody, or plasma/tissue samples from treated mice) were injected so that they flowed simultaneously on both immobilized hEPO and the reference surface. Dissociation was measured in the following 10 minutes. All of these assays were carried out at 25° C. […]
This method can thus allow to determine the plasma and tissue concentrations of antibody, on the basis of an appropriate calibration curve (FIG. 26A). The Lower Limit of Detection calculated was ˜0.5 μg/mL (˜3.3 nM), which corresponding to a LLD of 5 μg/mL in undiluted plasma.
The pharmacokinetic (PK) profile of anti-EPO (C4) was assessed after single i.v. injection in mice models for glioblastoma. In particular, the antibody concentrations were measured at different time points after treatment (from 6 hours to 1 week) in: […]

B1: anti-EPO (C4): isolated anti-Erythropoietin monoclonal antibody, VL SEQ ID NO:6, VH SEQ ID NO:14, hybridoma DSM ACC 3370 (antibody, listed as Homo sapiens, V domains shown)
VH: EVKLQESGGGLVQPGGSLKLSCAASGFTFSTYTMSWVRQTPEKRLEWVAYISNGGDRTYYPDTVKGRFTISRDDAKNTLFLQMSSLKSEDTAMYYCARHNITTVPFTMDYWGQGTSVTVSS
VL: DIVLTQSPASLAVSLGQRATISCRASESVDYYGTGLMQWYQQRPGQPPKLLIYGASNVGSGVPARFSGSGSGTDFSLNIHPVEGDDIAMYFCQQTRKVPSTFGGGTKLEIK
modifications: VH amino acid sequence; VL amino acid sequence
With B1 the “cells initially seeded dead” value (GBM-CSC cell line) was roughly 79%, the morphology of microglia (N9 microglia cells [1]) was “recover or maintain a branched morphology” and the “cells initially plated dead” value (MCF-7) was 71%. The viability (N9 microglia cells [2]) was “higher than 85%” and the half-time of elimination [3] was “about 4.4 days”.
